Assay results: PMC7229829, “Distortion of double-stranded DNA structure by the binding of the restriction DNA glycosylase R.PabI” (Nucleic Acids Research, 2020)
Positions count from the first letter of the chain named. In names and notes the source's numbering stands.

B1: R.PabI(Y68F-K154A) mutant (enzyme, Pyrococcus abyssi, UniProt Q9V2B6 8-226, looked up)
chain: EASVSFENGKIVVRLPITRPTSKIRVKKIENGVGIPVSTRKKSFPSDENLRDYYIEWQISFARDGKYDYELSRMVRLAHEHGILTYNDIYELLKFADDVKSYLEDKGIRRESTNEELYGFNIYEDVYPVAKKELPSGEFIGIVLKHAQRAVGYQSMVYVCIPLTNVEPSLAGRVARRNEVVKYEVPVDLMKELLKAFIIASETHKNDIVKFLRSIIGTS
notes: R.PabI, restriction DNA glycosylase of Pyrococcus abyssi, residues 8-226, cloned into pET26b; Mr = 25 287 printed; the vector pET26b can add a C-terminal His tag, but the printed Mr fits residues 8-226 without a tag; also called Y68F-K154A double mutant of R.PabI; source: E. coli Rosetta(DE3)pLysS, purified (heat 80°C, TOYOPEARL AF-Heparin, Mono S)
B2: R.PabI(Y68F) mutant (enzyme, Pyrococcus abyssi, UniProt Q9V2B6 8-226, looked up)
chain: B1 chain with A147K
notes: R.PabI, restriction DNA glycosylase of Pyrococcus abyssi, residues 8-226, cloned into pET26b; Mr = 25 344 printed; Called a dimer in the methods (loaded '2 μM as a dimer'); source: E. coli Rosetta(DE3)pLysS, purified (heat 80°C, TOYOPEARL AF-Heparin, Mono S)
B3: R.PabI(Y68F-P27G) mutant (enzyme, Pyrococcus abyssi, UniProt Q9V2B6 8-226, looked up)
chain: B1 chain with P20G, A147K
notes: R.PabI, restriction DNA glycosylase of Pyrococcus abyssi, residues 8-226, cloned into pET26b; Mr = 25 304 printed; Called a dimer in the methods (loaded '2 μM as a dimer'); also called Y68F-P27G double mutant; source: E. coli Rosetta(DE3)pLysS, purified (heat 80°C, TOYOPEARL AF-Heparin, Mono S)
B4: R.PabI(Y68F-P27G-T28G) mutant (enzyme, Pyrococcus abyssi, UniProt Q9V2B6 8-226, looked up)
chain: B1 chain with P20G, T21G, A147K
notes: R.PabI, restriction DNA glycosylase of Pyrococcus abyssi, residues 8-226, cloned into pET26b; Mr = 25 260 printed; Called a dimer in the methods (loaded '2 μM as a dimer'); also called Y68F-P27G-T28G triple mutant; source: E. coli Rosetta(DE3)pLysS, purified (heat 80°C, TOYOPEARL AF-Heparin, Mono S)
B5: R.PabI(K154A) mutant (enzyme, Pyrococcus abyssi, UniProt Q9V2B6 8-226, looked up)
chain: B1 chain with F61Y
notes: R.PabI, restriction DNA glycosylase of Pyrococcus abyssi, residues 8-226, cloned into pET26b; Mr = 25 303 printed; Called a dimer in the methods (loaded '2 μM as a dimer'); PDB 3WAZ (cited) holds R.PabI(K154A) with product dsDNA; also called K154A mutant of R.PabI; source: E. coli Rosetta(DE3)pLysS, purified (heat 80°C, TOYOPEARL AF-Heparin, Mono S)
B6: R.PabI(K154A-P27G-T28G) mutant (enzyme, Pyrococcus abyssi, UniProt Q9V2B6 8-226, looked up)
chain: B1 chain with P20G, T21G, F61Y
notes: R.PabI, restriction DNA glycosylase of Pyrococcus abyssi, residues 8-226, cloned into pET26b; Mr = 25 219 printed; Called a dimer in the methods (loaded '2 μM as a dimer'); source: E. coli Rosetta(DE3)pLysS, purified (heat 80°C, TOYOPEARL AF-Heparin, Mono S)

Target: the molecule itself
Test: SEC; Superdex 200 HR 10/30; 2 μM as a dimer loaded; 10 mM MES pH 6.0, 500 mM NaCl; oligomeric state estimated against standard proteins

Row | Protein | stoichiometry N | binding result
1 | B1 | 2 | 
2 | B2 |  | binds
3 | B3 |  | binds
4 | B4 |  | binds
5 | B5 |  | binds
6 | B6 |  | binds
